Laboratory results taken from the domain aggregation screens of Martell et al. (2025).

Assay: soluble fraction after stress (log2 fold change); higher = more stays soluble; pooled small domains, quantitative proteomics
Settings: stress: 75 degC
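Note: 20 min heating vs room temperature control held 20 min.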

Sequence	soluble fraction (log2)
HMDTFSVAIGTKTPDGSSVGEVKTISRDELLLLEDEVAEDPTKEIIFTGGTKDSAQAALDGWIDYNTNLAS	0.0395
HMDTFYKNLSKKIKTIREKLSFSQEALAKELGISRVAISQIENGDRKISAEEIAKLSRVFNVPTDILLN	-0.281
HMDTHDVQVPQEGQGLRLDLFLTDHIEGSRSFIQTIIKDGHVILNGKKAKANSRLNEGDYVVWSIPKPE	-0.288
HMDTHRLNYSDFVAEVQAQRVSKVVIDGYTIVGQRTNGETFETVRPALQDPKLVDDLLQNNVIIEGKQPE	-0.0116
HMDTIVHFLSDGRRITVRIKRNARKNIILRPMAADAVSATIPPWLGRRQLSAWLSEREDLLLSVLSRAA	-3.34
HMDTLESYVKRLEKLEGIADSFKGVSKAFALQAGREIRIMVESEKITDEEAVWLSKDIARRIENELEYPG	-0.331
HMDTNKMLIVNSISNGMKRLQELQDPQLAEIQKTFSGLDEQKATSAQLAQINNIINNRIAEIEG	0.23
HMDTNPKVIITMDGVNVRSSASTGSDILFIAEKGEEYELISESGDFYKILYEGNKEGYVASWLVETSE	0.239
HMDTNVKLLSPKQADFFASKLANNQNFSSKFAKVGEDMQPFIERISSELQQDISQVIVYMPYLLESGFKQ	-0.328
HMDTNVPVPNVNGMTLNQAKAALEAAGFHVAVNWLGEKSDNNSVISYEPNGSAAKGTTITITVIAQPEQDG	0.0988
HMDTPPGLSPEEQAIIDIITTRGDATINELTASIDIPTPRLMGMLVDMEFRSLIAAIPGGRYRI	-1.82
HMDTRQFWEQWVADEIRTFEHKDRKQLFGWFEGNKPKLGQMKKLGYGDLLTKVQTSWDEIYQQKE	0.0857
HMDTRSSARKALDAVNLLLETYGAKAYQHSYEIAGRRQQFQTPGDFMAFRSRLMAEVATEENAARINA	-0.211
HMDTSKIDYSEFITMLDKGEVESVVLKSDTLTVTLKHGTGMAAQTKTVTLMEDLSELTKRLEKAGVKSFDK	0.614
HMDTVIAEVTASILNLRRSAGTSSDIIGKLNKGEKVSIIGGSGNWKNVRTSGGITGWVYHEYLSTY	-1.46
HMDTYDSIDSILEERHLSRRKLAQAIGLPPSTFQSMMSRKSGMTLEVLMKIVSYLQVSPDAFW	-3.17
HMDVAWDAIKAKLKEVVDAEDKAHPLNDDQIVKALGESGITIARRTIAKYRDLLGIPPARKRKA	-0.213
HMDVIGLEAAKSAAVKDAGISSPTFTKATLDRDDGRSLYEIEFISGSTKYEYDIDALTGSVLSKKTRALS	0.207
HMDVKPWERQEGESAKAFEAFTIYAGLGADRSLRAVAQQLGKSKTLMDRWSSTYSWVARAAEYDADLQRK	-0.489
HMDVLFGNRLRQLLDERNISQAHFADRIGVSRSRMNNYVAQRSEPDYATLIRIANTLDTSIDFLLGKS	-2.36
HMDVLIQEIGKRLRIQRLAMGLTQEELAKRAGISLSTLKLMEQQGKGSLQRLAKVAVVLDLDGDLRGLF	-2.87
HMDVLKVFSHNVRRYRTQLGLSQETVAFRTGLHRTYISAVERGKRSISLDNIQKIADALEVETYLLFI	-1.76
HMDVLNPGDKAVTTASWLNFRTGPGMQNKVASVLARNTTVNIIEKSNEWYKVSLANGSTGYVHGMYLSKIT	-1.73
HMDVLSQYGSRGEEVGKIQTRLKSWGYFSGEVTGYYGSQTTEAVKRFQQKHGLSATGVADRKTLELIGIS	-0.307
HMDVLTARENEVLQLLAKGMSNKEIASVLVITEKTVKAHVSSILSKLNLSDRTQAALYAVKNGI	-0.763
HMDVNMLVTGMLHKGEKSFVRVSFLRGKDWAEGIVPDAKIEKSQGFMEEEVARLEAYLLEQKSMIMEQA	-1.83

Sequence	soluble fraction (log2)
HMDVQGFVMDLDKPLDKEPIVEGFELKLEDSLTLVAAVNKDKSINSLFDELSKLGIKVKSMRNPP	0.0316
HMDVQNLTKKNQEFINIVTHQLLQSGKSDEDIQTILAKTLPEIIEKQKQGIPARSFLGAPTAWAAQFI	-0.0596
HMDVRLAKVYMLPANPYLRFIEFDDGTHGKFRAKPGKFGLGSVVKVKREDGDMYTLEGNYDGKDRL	-0.763
HMDVSPVRLIREARGLSQVEVAKAAGLSRAAYQNIEVGKTVPRASTMVNIARALGVSMDDLLAPV	-0.437
HMDVSVPDVTGTRLDRAQSLLEAQGLTLGKVEEFFHATEPAGIVYDQEPRPGTRVDEGTAISVSVSKGPEA	0.323
HMDWFDELKVSTDDSGRVTAPEESEFMFQTSNEKIFAGGDMVRGSDLVVTAIWEGRQAAEGIMDYLD	-0.02
HMDWPDDETIARIYALIKSDISSQARKVMELRFSEGMPFARIAAAMGISETAVYRHLSHALTVIRQKLN	-2.14
HMDWREMTAWMAELLKRRTGDDVETWNARVRESGAHDEASLRAWLTEQGVTGYAQTLLVMERFGYPDFF	-2.89
HMDYADISYKIFMNHIKNGQVERVELSGDPRIMGKLKDGTYFVTDNPRTENFKEFLLLNNVQVIETN	0.738
HMDYEVPEELQQKFEEFPRLKEAFYQLTPGRQHQYLYYFSQAKRSQTRYNRIDKYMNAILQGKGMK	-1.67
HMDYINALTTAGITDAKVIVTAPFDVSGTAALTGIYKAYEDITGSSLNEIAKAVGVEELITTGNLA	0.23
HMDYKAELDNIIRDHLDMEGPLLPVLHAVMARFSYIPKDAIPIIARKLNLSSAEVSGVISFYHDFKKEK	-1.81
HMDYKYYIVKEPMVVKNLELPVGTRIVYFNTSLFGDSESSRPLKEKNIYQIFFPDDKPLIWGGVPVSLIER	-2.24
HMDYNLTKNQKIVFNLLQNSGEPLKAYTILESLKREGLKSPLQVYRALDKLVELGIIHKIESQNSFI	-0.334
HMDYNMEEWSLTADQLKSGDTILILNLGKTATLLESTRGKKNVRVRMGNIKTIVETSSIRGNPHQ	-1.77
HMDYPFQYFNYSHLRILGVPAQLIKAVRKAPTLDAIEQLSGLSEKTKLWLLELATEPKLEDVLFDPGR	-1.98
HMDYRSMSGLQKAALLIMSVGEETAAKLFQLMHDDEIREISQTMANLGTVNATVIERLFVEFADAISS	-1.1
HMDYVKTLGETINVRVAASTDADIYKLLPGGEILNRVGYNEEWTKVMVDGSTFYVYSEYVIQTEPPA	-1.32
HMDYYSILGVDRNATGEDIKKAFKKKAMKYHPDRNPDNKESERKFKEAKEAYDTLSNPQKKSMYDQFGT	0.149
HMEAEDLRDWVGARGIAYTALRPAGIAVVNGRRVDVVSEGAFVNRDDPVEVVRVEGRRIVVKP	-0.0876
HMEAGTEYVERAADYIRSHFQEDLTVSKLALYVGLNRSYLTTVFQNTLHVSPQQFLMRFRMERAAQLLD	0.0997
HMEAGTVTVTHAAVYIRSGPGVSYPIAGKAAKNDTYTVLQKDGDWFQIRLPQGNTGWIAGWLVETGT	-1.69
HMEAISIYPNPTDNELHLSTSVQEVRIYNMYGIEVTRAANTDRLAVSHLPKGVYLVHADGAVLKMIK	-2.7
HMEAISSESIKKMIKSYVSGEDASKPLSDQQIADLLVKEGYMISRRTVAKYRDELGILSSSKRKR	-0.152
HMEAKQMDAWIVSEAKRQGGKIEPAAAYELSRHTATDTSIASQEIAKLLMYVDFKRPVTREDVVELVSA	0.0579
HMEALPELTDRQRQVYEFIEARIAEWGYPPTIREIGQHLGIKSTNGVADHLKALKRKGYLQQ	-0.566

Sequence	soluble fraction (log2)
HMEALTPREREVLTLMGQGRSNAEIATLLSIAPRTAKVHVQNILSKLGATNRTEAVSLAVRQGLIS	0.343
HMEASVNAPMPGKIVSVSVSEGQQVNAGDVLLILEAMKMQNEITADAAGTVKAINVNAGQSVKNGDSLVIL	0.832
HMEAVGLTPRQGDVLALLLQGKPNKLIARDLNLSVETVKDHVAAVLRALGVSTRTQAVLAVSQMQQQAAQ	-0.444
HMEAVLTISPGMYSESVSAELVRLGIITNQKEFNSYLVNNGYAERIQTGDFKIKADMSYDEIARIITK	-0.563
HMEAYDTMEDRTTLAPGFAKLDKRERYILHLRFFEGLTQSQIAERVGISQMHVSRLIRRSLEKLREEIGD	-2.67
HMEAYSAEAVRFRIKAMIESETVDDVMSDDKIVERLLADGVDIARRTVAKYREAMNIPSSVKRRRKLKGM	-1.92
HMEDDRMLVWFFRKSIQNGAQSEAEGRPIFEGKDYVHIQQPGERDYIEREAHQGDIGRWPRHWQAYQEGR	0.246
HMEDEAVMQLPLSELKGLSPELLAILNGAGYEKLKDVLDLEREDIERIPGMTPERNEQLVAFLAELTE	0.619
HMEDELFSVARAAFPEYASKIHMNYGSTVQSIARQSGVLTVSETKQLNENQQISYLEYSNGAVVLALA	-0.0187
HMEDELVMERFDINELVKSVVNANELRATQKNLSITYDILDTPLYVWADEYKVEEVVTNYLS	0.00277
HMEDIASESVKRVIRKIIDDEDKKSPLSDQAIVEILAKGEGIVIARRTVAKYREMMGILPSSKRKKH	-1.4
HMEDKIEESLEDNISELFAKTKDKYTLINDLYSKGYTVEELSRFSGLPSGEVRLVISLNSKN	-0.0653
HMEDKPITKEQKQAMFALLREHFSGDEGNAVYTAVLEREGLAPGDKIMSSVYDRLIDGINEAIRQKLEAGA	-0.0206
HMEDNLMIVVQVNGKKRSEIKVSIDASEDQIKQTALAEPNVQKFVEGHTIRKMILVPSKLLNIVV	-1.65
HMEDPKLAQLTEQERKILDLIADGLTNRQIAEKMFLAEKTVKNYVSTILAKMGMSNRSEAAAYVARLEAG	-0.0697
HMEDPPISQEQRQALFKMAHDHLGKDEGNKAILTLIQSHGLNSTTGMKVSTYNTIMEELVSTIQSLAA	-0.0374
HMEDPVAQEARAAFEVGRLLAAATGPVTLAAIRRAIDLPEERLEEILRRLEESGAVRRARDGWLPG	-0.0316
HMEDVDLFTKAMAALPNRYRDILLLRYSHGYTVEEISDILSMKPENVKKTIQRARKKLGEILEAEG	-1.25
HMEEDPVIAAQRFLNIFRQLHIFTAAKRKEFDELLLKQPASVKGMFASLPGGSVLQEYVNNLEQNAG	-0.564
HMEEFIEHTVEKGEFLSAIIVAYNQHLKSKGFKSITTRDILNANPKLKPELIQVGQKIKIPRRKK	-1.71
HMEEFLSFIADILEVDKNTLTLETSQDDVETWDSLMQLRLLGEIEAKYGVMIPMERISTIKKLNDFYQYIK	-1.12
HMEEIIPIRFLRHRVKRRETIFGLTQKYNITEDQLKRYNTRLYSEALERKMVLQIPVFPEVDED	-2.29
HMEEITLQEQINFIKDMLLNKEKFHLTDVITKKSKIYVVSLFLALLELIRLEEINFRQTQNFSDIIISRI	0.0172
HMEELGKVRPELDGNEIAKVLGITPGPVLGRAYTYLLSVRLDEGPIGPDVARERLLAWWAEQPES	-1.2
